This note sets out measurements from patent US6699662.

The target in the data set is T1, SarA (staphylococcal accessory regulator A), strain DB (Staphylococcus aureus) (UniProt Q2G2U9).
T1 sequence: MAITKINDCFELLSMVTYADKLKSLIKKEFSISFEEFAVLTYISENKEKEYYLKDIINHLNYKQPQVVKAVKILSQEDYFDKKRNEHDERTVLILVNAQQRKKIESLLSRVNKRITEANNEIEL
As to the kind of experiment: EMSA. The settings on record: same buffer; 1 dimer per DNA; dG dissociation 12.1 kcal/mol.

Turning to “AC oligo (45 bp, footprint region of Chien and Cheung)”, the Kd was determined as 1 nM.
